Assay results from doi:10.1101/2021.04.14.439859.
pKd: −log10 of the molar value.

Experiments:
Experiment in all cases: fluorescence polarisation
[1] = molecular target: H3-H4 (Alexa-488 H4) (human) (UniProt P68431)
TLH3 nucleosome (human) = TLH3 nucleosome (human) (UniProt P04908)
TLH4 nucleosome (human) = TLH4 nucleosome (human) (UniProt P04908)
[2] = molecular target: H2A-H2B (Alexa-488 H2B) (human) (UniProt P04908)

- pKd [1]: 8.92
- pKd (TLH3 nucleosome (human)): 6.48
- pKd (TLH4 nucleosome (human)): 6.96
- pKd [2]: 8.00
Substance: SMARCAD1 (from UniProt Q9H4L7 1-1026) (enzyme)
